Measured values from patent US20210115144A1 (Dana-Farber, published 2021).
One block for each binder: values may come before it.

B4: human HHLA2-mIgG2a fusion protein (Fc fusion, not shown: a dimerising Fc or GST)
chain: IFPLAFFIYVPMNEQIVIGRLDEDIILPSSFERGSEVVIHWKYQDSYKVHSYYKGSDHLESQDPRYANRTSLFYNEIQNGNASLFFRRVSLLDEGIYTCYVGTAIQVITNKVVLKVGVFLTPVMKYEKRNTNSFLICSVLSVYPRPIITWKMDNTPISENNMEETGSLDSFSINSPLNITGSNSSYECTIENSLLKQTWTGRWTMKDGLHKMQSEHVSLSCQPVNDYFSPNQDFKVTWSRMKSGTFSVLAYYLSSSQNTIINESRFSWNKELINQSDFSMNLMDLNLSDSGEYLCNISSDEYTLLTIHTVHVEPSQETASHN
notes: also called hHHLA2-mIgG2a; HHLA2-Fc

Experiments:
[1] = target: B4; assay: cell microarray, soluble HHLA2-mIg fusion protein on transfected HEK293 cells
[2] = target: T1, human HHLA2 expressed on transfected cells (300.19 mouse pre-B cells; CHO cells) (human, UniProt Q9UM44 23-414); assay: flow cytometry, mAb on HHLA2-transfected 300.19 mouse pre-B cells
T1 construct: also called B7-H7; B7H7
T1 sequence: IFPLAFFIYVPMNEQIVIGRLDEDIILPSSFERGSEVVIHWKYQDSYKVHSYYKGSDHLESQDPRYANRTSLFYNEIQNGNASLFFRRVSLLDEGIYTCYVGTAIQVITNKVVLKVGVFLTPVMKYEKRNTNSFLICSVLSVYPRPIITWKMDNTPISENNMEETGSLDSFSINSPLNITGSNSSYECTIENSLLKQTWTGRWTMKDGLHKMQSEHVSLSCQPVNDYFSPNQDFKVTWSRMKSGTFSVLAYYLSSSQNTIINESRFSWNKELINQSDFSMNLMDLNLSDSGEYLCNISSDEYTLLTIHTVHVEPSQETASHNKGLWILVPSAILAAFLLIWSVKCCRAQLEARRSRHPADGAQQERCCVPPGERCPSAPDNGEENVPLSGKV

[3] = target: T1, human HHLA2 expressed on transfected …; assay: flow cytometry, mAb titrated on human HHLA2-transfected 300.19 pre-B cells
Experimental: (§1) Binding of different HHLA2 mAbs to human and cynomolgus monkey HHLA2 was also tested and EC50 binding analysis was conducted (FIGS. 13A and 13B). […] HHLA2 mAb binding to transfected 300.19 cells was detected with PE-labeled goat anti-mouse IgG (H+L). EC50 analysis was conducted using Graph Pad Prism.

[4] = target: T2, cynomolgus monkey HHLA2 expressed on transfected 300.19 pre-B cells (cynomolgus monkey); assay: flow cytometry, mAb titrated on cynomolgus monkey HHLA2-transfected 300.19 pre-B cells
T2 construct: whole, on cells
Experimental: FIGS. 13A and 13B show HHLA2 mAb binding to human and cynomolgus monkey HHLA2. […] HHLA2 mAb binding to transfected 300.19 cells was detected with a PE-labeled goat anti-mouse IgG (H+L) by flow cytometry.
as §1

[5] = target: T1, human HHLA2 expressed on transfected …; assay: flow cytometry, mAb titrated on HHLA2-transfected 300.19 pre-B cells, PE goat anti-mouse IgG
Experimental: (§2) HHLA2 mAb cell binding and receptor blockade experiments were then performed. […] HHLA2 mAb binding to transfected 300.19 cells was detected with PE-labeled goat anti-mouse IgG (H+L). For HHLA2 mAb blocking experiments different concentration of HHLA2 mAbs were pre-incubated with 4 ug/ml of HHLA2-mIgG2a at a 1:1 ratio for 30 minutes and added to either TMIGD2 or KIR3DL3 transfected 293T cells and incubated for 30 minutes at 4° C. HHLA2-mIgG2a binding to TMIGD2 or KIR3DL3 transfected 293T cells was detected with a PE labeled Fab2 goat anti-mIgG2a antibody. EC50 and IC50 analyses were conducted using Graph Pad Prism. It was shown that HHLA2 mAb clone 2C4 has desired properties of complete KIR3DL3 blockade and partial TMIGD2 blockade (Table 6).

[6] = target: T1, human HHLA2 expressed on transfected …; assay: as above; remark: listed apart in the source
Experimental: as §1

[7] = target: B4; assay: flow cytometry, mAb pre-incubated with 4 ug/ml HHLA2-mIgG2a; blockade of its binding to TMIGD2-transfected 293T cells
Experimental: as §2

[8] = target: B4; assay: flow cytometry, mAb pre-incubated with 4 ug/ml HHLA2-mIgG2a; blockade of its binding to KIR3DL3-transfected 293T cells
Experimental: as §2

[9] = target: B4; assay: flow cytometry, mAb pre-incubated with 4 ug/ml HHLA2-mIgG2a; blockade of its binding to TMIGD2-transfected 300.19 pre-B cells
Experimental: (§3) HHLA2 mAb binding to transfected 300.19 cells was detected with PE-labeled goat anti-mouse IgG (H+L). […] EC50 and IC50 analyses were conducted using Graph Pad Prism. It was shown that HHLA2 mAb clone 2C4 has desired properties of complete KIR3DL3 blockade and partial TMIGD2 blockade (Table 7).

[10] = target: B4; assay: flow cytometry, mAb pre-incubated with 4 ug/ml HHLA2-mIgG2a; blockade of its binding to KIR3DL3-transfected 300.19 pre-B cells
Experimental: as §3

[11] = target: T1, human HHLA2 expressed on transfected …; assay: flow cytometry, staining and sorting of HHLA2-transfected 300.19 cells
Experimental: In particular, binding affinity for each anti-HHLA2 antibody was assayed. The HHLA2 cDNA and a vector encoding puromycin resistance were co-transfected by electroporation (300 volts, 1600 microfarads) into mouse 300.19 cells and selected with media containing 5 μg/ml puromycin. Cells expressing HHLA2 were identified by staining with TMIGD2-human Fc fusion protein and goat anti-human Fc antibody conjugated to phycoerythrin and single cell sorted by flow cytometry. Expression of HHLA2 in individual clones was confirmed by flow cytometry as described above. HHLA2-transfected 300.19 cells were titrated with anti-HHLA2 mAbs (FIG. 1A).

[12] = target: T3, KIR2DL1 (human, UniProt P43626 22-348); assay: cell microarray, HHLA2-mIgG2a on fixed transfected HEK293 cells, AF647 anti-mouse IgG detection
T3 construct: whole, on cells
T3 sequence (P43626 22-348): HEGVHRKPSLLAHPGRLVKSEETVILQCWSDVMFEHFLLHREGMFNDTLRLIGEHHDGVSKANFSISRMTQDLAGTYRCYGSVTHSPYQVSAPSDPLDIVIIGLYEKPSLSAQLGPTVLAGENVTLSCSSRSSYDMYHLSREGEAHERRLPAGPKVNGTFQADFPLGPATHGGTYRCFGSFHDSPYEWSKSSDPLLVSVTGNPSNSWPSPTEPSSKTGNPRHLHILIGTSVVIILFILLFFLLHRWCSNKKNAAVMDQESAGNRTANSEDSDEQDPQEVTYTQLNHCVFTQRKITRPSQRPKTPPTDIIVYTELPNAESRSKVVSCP
Experimental: (§4) Human HHLA2-mIgG2a fusion protein was added to slides of fixed, transfected HEK293 cell slides at a 20 ug/ml concentration, and the protein was detected with an AF647 labeled anti-mouse IgG detection antibody. Two replicate slides were screened for each of the 13 slide sets. Fluorescent images were analyzed and quantitated (for transfection efficiency) using ImageQuant software (GE). A protein ‘hit’ was defined as duplicate spots showing a raised signal compared to background levels. This was achieved by visual inspection using the images gridded on the ImageQuant software.
(§5) Addition of the AF647 labeled anti-mouse IgG detection antibody alone in the absence of HHLA2-mIgG2a produced no signal. The selectivity of HHLA2 binding to KIR3DL3 was evaluated using a panel of 14 KIR receptors arrayed on slides.

[13] = target: T4, KIR2DL2 (human, UniProt P43627 22-348); assay: as above
T4 construct: whole, on cells
T4 sequence (P43627 22-348): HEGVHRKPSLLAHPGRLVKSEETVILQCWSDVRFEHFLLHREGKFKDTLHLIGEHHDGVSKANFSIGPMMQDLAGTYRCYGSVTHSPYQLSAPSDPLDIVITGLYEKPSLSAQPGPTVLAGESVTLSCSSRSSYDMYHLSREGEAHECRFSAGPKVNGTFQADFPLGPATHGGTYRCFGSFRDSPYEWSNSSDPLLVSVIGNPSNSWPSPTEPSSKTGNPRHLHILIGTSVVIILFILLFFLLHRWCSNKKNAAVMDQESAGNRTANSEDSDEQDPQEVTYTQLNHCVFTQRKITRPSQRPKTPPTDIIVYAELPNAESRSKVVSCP
Experimental: as §4, §5

[14] = target: T5, KIR2DL4 (human, UniProt Q99706 22-377); assay: as above
T5 construct: whole, on cells
T5 sequence (Q99706 22-377): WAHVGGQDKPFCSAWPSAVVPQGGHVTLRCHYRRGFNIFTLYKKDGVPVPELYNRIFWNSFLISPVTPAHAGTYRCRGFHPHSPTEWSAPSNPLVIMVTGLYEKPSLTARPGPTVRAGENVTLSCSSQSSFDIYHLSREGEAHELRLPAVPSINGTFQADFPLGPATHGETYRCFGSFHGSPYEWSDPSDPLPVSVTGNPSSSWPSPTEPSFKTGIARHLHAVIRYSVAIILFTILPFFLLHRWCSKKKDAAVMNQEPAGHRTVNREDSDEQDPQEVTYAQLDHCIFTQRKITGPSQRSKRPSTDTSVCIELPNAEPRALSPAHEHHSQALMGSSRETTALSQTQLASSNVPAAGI
Experimental: as §4, §5

[15] = target: T6, KIR2DL5A (human, UniProt Q8N109 22-375); assay: as above
T6 construct: whole, on cells
T6 sequence (Q8N109 22-375): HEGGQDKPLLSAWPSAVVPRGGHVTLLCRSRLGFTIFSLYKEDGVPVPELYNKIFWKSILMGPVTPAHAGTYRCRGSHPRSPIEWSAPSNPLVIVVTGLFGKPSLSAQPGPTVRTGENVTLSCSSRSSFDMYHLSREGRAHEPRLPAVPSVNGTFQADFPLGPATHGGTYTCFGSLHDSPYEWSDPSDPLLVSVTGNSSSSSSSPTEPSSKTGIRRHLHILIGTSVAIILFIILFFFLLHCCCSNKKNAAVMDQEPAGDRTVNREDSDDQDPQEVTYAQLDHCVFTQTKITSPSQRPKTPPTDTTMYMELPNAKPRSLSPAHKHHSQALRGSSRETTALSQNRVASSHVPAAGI
Experimental: as §4, §5

[16] = target: T7, KIR2DL5B (human, UniProt Q8NHK3 22-375); assay: as above
T7 construct: whole, on cells
T7 sequence (Q8NHK3 22-375): as the sequence (Q8N109 22-375) above, with N152D, G174S counted along it
Experimental: as §4, §5

[17] = target: T8, KIR3DL1 (human, UniProt P43629 22-444); assay: as above
T8 construct: whole, on cells
T8 sequence (P43629 22-444): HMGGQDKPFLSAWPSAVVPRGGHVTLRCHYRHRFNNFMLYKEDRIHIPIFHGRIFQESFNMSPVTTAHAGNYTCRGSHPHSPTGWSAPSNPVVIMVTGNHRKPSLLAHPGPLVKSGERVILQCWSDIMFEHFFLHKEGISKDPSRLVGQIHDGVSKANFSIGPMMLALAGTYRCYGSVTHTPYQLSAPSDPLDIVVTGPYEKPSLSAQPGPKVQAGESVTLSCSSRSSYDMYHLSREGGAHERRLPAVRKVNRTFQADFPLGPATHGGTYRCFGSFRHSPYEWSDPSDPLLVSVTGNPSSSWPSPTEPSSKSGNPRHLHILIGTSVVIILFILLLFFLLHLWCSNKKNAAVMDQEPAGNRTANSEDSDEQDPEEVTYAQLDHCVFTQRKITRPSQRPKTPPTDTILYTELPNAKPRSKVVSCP
Experimental: as §4, §5

[18] = target: T9, KIR3DS1 (human, UniProt Q14943 22-382); assay: as above
T9 construct: whole, on cells
T9 sequence (Q14943 22-382): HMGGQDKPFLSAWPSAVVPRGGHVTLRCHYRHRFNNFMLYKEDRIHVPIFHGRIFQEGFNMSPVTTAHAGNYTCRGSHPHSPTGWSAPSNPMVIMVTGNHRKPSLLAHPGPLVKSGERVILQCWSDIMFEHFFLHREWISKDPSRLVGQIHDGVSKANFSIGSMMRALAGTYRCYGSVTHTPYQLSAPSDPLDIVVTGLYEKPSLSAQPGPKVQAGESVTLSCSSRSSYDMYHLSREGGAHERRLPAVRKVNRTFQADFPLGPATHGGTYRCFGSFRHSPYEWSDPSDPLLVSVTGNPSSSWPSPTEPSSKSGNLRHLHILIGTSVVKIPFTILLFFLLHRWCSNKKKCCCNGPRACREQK
Experimental: as §4, §5

[19] = target: T10, KIR3DL2 (human, UniProt P43630 22-455); assay: as above
T10 construct: whole, on cells
T10 sequence (P43630 22-455): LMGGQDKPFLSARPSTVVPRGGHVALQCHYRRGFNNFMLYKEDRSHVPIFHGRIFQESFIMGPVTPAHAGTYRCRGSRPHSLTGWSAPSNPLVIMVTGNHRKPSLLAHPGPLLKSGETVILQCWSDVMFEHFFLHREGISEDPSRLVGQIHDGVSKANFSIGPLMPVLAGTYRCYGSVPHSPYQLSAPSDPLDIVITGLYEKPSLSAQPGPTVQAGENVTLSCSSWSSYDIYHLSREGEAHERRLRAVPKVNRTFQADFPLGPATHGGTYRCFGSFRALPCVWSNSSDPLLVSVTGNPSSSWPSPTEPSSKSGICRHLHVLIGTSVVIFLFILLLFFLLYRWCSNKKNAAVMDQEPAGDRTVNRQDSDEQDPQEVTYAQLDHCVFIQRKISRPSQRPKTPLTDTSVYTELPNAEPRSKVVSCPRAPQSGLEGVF
Experimental: as §4, §5

[20] = target: T11, human KIR3DL3 expressed on transfected cells (HEK293 microarray, 293T, 300.19) (human, UniProt Q8N743 26-410); assay: cell microarray, HHLA2-mIgG2a on fixed KIR-transfected HEK293 cells, AF647 anti-mouse IgG detection
T11 construct: also called CD158Z; KIR3DL7
T11 sequence (Q8N743 26-410 H321N limits assumed): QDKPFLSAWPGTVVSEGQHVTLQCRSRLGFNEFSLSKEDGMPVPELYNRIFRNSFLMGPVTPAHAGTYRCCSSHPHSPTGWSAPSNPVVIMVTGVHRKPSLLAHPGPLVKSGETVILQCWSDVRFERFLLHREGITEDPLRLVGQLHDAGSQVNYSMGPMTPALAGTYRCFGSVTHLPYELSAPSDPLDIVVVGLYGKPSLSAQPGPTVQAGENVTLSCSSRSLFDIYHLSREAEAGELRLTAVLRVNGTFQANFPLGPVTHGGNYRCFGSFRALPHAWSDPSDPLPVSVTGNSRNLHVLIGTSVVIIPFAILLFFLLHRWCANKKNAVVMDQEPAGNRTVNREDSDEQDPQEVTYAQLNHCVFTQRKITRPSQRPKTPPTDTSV
Experimental: as §4, §5

binding result [1]: binds
B1: human TMIGD2 expressed on transfected cells (293T, 300.19, HEK293 microarray, Jurkat) (receptor)
chain: LSVQQGPNLLQVRQGSQATLVCQVDQATAWERLRVKWTKDGAILCQPYITNGSLSLGVCGPQGRLSWQAPSHLTLQLDPVSLNHSGAYVCWAAVEIPELEEAEGNITRLFVDPDDPTQNRNRIASFPGFLFVLLGVGSMGVAAIVWGAWFWGRRSCQQRDSGNSPGNAFYSNVLYRPRGAPKKSEDCSGEGKDQRGQSIYSTSFPQPAPRQPHLASRPCPSPRPCPSPRPGHPVSMVRVSPRPSPTQQPRPKGFPKVGEE
notes: The cDNA used in 293T and 300.19 cells is not tied to an entry in words; also called CD28H; IGPR1

binding result [11]: binds
B3: human TMIGD2-human IgG1 fusion protein (R&D Systems catalog #8316-TR-050) (Fc fusion, UniProt Q96BF3 23-150, looked up)
chain: LSVQQGPNLLQVRQGSQATLVCQVDQATAWERLRVKWTKDGAILCQPYITNGSLSLGVCGPQGRLSWQAPSHLTLQLDPVSLNHSGAYVCWAAVEIPELEEAEGNITRLFVDPDDPTQNRNRIASFPG
notes: Bought reagent; also called TMIGD2-hIgG; TMIGD2-human Fc fusion protein; not shown: human IgG1 Fc portion of the bought fusion protein

More lines, now with the values behind:

B2: anti-HHLA2 monoclonal antibody 6F10 (antibody, IgG1, V domains shown)
VH: QVHLQQSAAELARPGASVKMSCKASGYTFTTYTMHWVKQRPGQGLEWIGHINPSSGYTDYNQKFKDKTTLTADKSSSTAYMQLNSLTSEDSAVYYCARHPWDSDYWGQGTTLTVSS
VL: DIQMTQSPASLSASVGETVTITCRASENIDSYLAWYQQKQGRSPQLLVYAATNLADGVPSRFSGSGSGTQFSLQINRLQSEDVARYYCQHYYITPFTFGSGTKLEIA
notes: also called 499.5.6F10.A4.10; MHC2557
EC50 [2]: 0.25 µg/mL
EC50 [3]: 0.22 µg/mL
EC50 [4]: 0.4 µg/mL
EC50 [5]: 0.25 µg/mL
EC50 [6]: 0.22 µg/mL
IC50 [7]: 0.55 µg/mL
IC50 [8]: 0.9 µg/mL
IC50 [9]: 0.92 µg/mL
IC50 [10]: 0.74 µg/mL

Binder: B4
binding result [12]: no binding (tested: 20 ug/ml)
binding result [13]: no binding (tested: 20 ug/ml)
binding result [14]: no binding (tested: 20 ug/ml)
binding result [15]: no binding (tested: 20 ug/ml)
binding result [16]: no binding (tested: 20 ug/ml)
binding result [17]: no binding (tested: 20 ug/ml)
binding result [18]: no binding (tested: 20 ug/ml)
binding result [19]: no binding (tested: 20 ug/ml)
binding result [20]: binds
